Test results: patent US10450368

Tests used:
[1] = target: SSA; assay: AtheNA, Ab 25 ug/ml
[2] = target: RNP (ribonucleoprotein); assay: AtheNA, Ab 25 ug/ml
[3] = target: Sm (Smith antigen); assay: AtheNA, Ab 25 ug/ml
[4] = target: Jo-1 (UniProt P12081); assay: AtheNA, Ab 25 ug/ml
[5] = target: Histones; assay: AtheNA, Ab 25 ug/ml
[6] = target: SSB (UniProt P05455); assay: AtheNA, Ab 25 ug/ml
[7] = target: Scl-70 (UniProt P11387); assay: AtheNA, Ab 25 ug/ml
[8] = target: Centromere B (UniProt P07199); assay: AtheNA, Ab 25 ug/ml
[9] = target: HIV-1 CH505 transmitted/founder gp120 Env (HIV-1); assay: competition ELISA, blocking of CH236 binding to CH505 TF gp120
[10] = target: SSA; assay: AtheNA, Ab 12.5 ug/ml
[11] = target: RNP (ribonucleoprotein); assay: AtheNA, Ab 12.5 ug/ml
[12] = target: Sm (Smith antigen); assay: AtheNA, Ab 12.5 ug/ml
[13] = target: Jo-1 (UniProt P12081); assay: AtheNA, Ab 12.5 ug/ml
[14] = target: Histones; assay: AtheNA, Ab 12.5 ug/ml
[15] = target: SSB (UniProt P05455); assay: AtheNA, Ab 12.5 ug/ml
[16] = target: Scl-70 (UniProt P11387); assay: AtheNA, Ab 12.5 ug/ml
[17] = target: Centromere B (UniProt P07199); assay: AtheNA, Ab 12.5 ug/ml
[18] = target: HIV-1 CH505 transmitted/founder gp120 Env (HIV-1); assay: competition ELISA, blocking of CH235 binding to CH505 TF gp120
[19] = target: HIV-1 CH505 transmitted/founder gp120 Env (HIV-1); assay: competition ELISA; competitor biotinylated CH241 on CH505 TF gp120
[20] = target: HIV-1 CH505 transmitted/founder gp120 Env (HIV-1); assay: competition ELISA, blocking of CH239 binding to CH505 TF gp120
[21] = target: CH505w160.C14D8gp120 (HIV-1); assay: direct-binding ELISA
[22] = target: CH505w136.B8D8gp120 (HIV-1); assay: direct-binding ELISA
[23] = target: CH505w136.B2D8gp120/293F (HIV-1); assay: direct-binding ELISA
[24] = target: CH505w160.T2D8gp120 (HIV-1); assay: direct-binding ELISA
[25] = target: CH505_w137V209C12.D11gp120 (HIV-1); assay: direct-binding ELISA
[26] = target: CH505w160.C2D8gp120 (HIV-1); assay: direct-binding ELISA
[27] = target: CH505w160.A1D8gp120 (HIV-1); assay: direct-binding ELISA
[28] = target: CH505w160.D1D8gp120 (HIV-1); assay: direct-binding ELISA
[29] = target: CH505w160.C12D8gp120 (HIV-1); assay: direct-binding ELISA
[30] = target: CH505.TF mutant gp120 M20 (HIV-1); assay: direct-binding ELISA
[31] = target: CH505w136.B5D8gp120 (HIV-1); assay: direct-binding ELISA
[32] = target: CH505w160.C11D8gp120 (HIV-1); assay: direct-binding ELISA
[33] = target: CH505w136.B18D8gp120 (HIV-1); assay: direct-binding ELISA
[34] = target: CH505.M11D8gp120/293F; assay: direct-binding ELISA
[35] = target: CH505w136.B12D8gp120 (HIV-1); assay: direct-binding ELISA
[36] = target: CH505w160.T4D8gp120/293F (HIV-1); assay: direct-binding ELISA
[37] = target: CH505.M7D8gp120/293F; assay: direct-binding ELISA
[38] = target: CH505.M19D8gp120; assay: direct-binding ELISA
[39] = target: CH505w160.D5D8gp120/293F (HIV-1); assay: direct-binding ELISA
[40] = target: CH505w136.B36D8gp120 (HIV-1); assay: direct-binding ELISA
[41] = target: CH505w136.B20D8gp120 (HIV-1); assay: direct-binding ELISA
[42] = target: CH505w136.B10D8gp120 (HIV-1); assay: direct-binding ELISA
[43] = target: CH505w136.B3D8gp120/293F (HIV-1); assay: direct-binding ELISA
[44] = target: CH505.TF mutant gp120 M6 (HIV-1); assay: direct-binding ELISA
[45] = target: CH505w160.C4D8gp120 (HIV-1); assay: direct-binding ELISA
[46] = target: CH505w136.B29D8gp120 (HIV-1); assay: direct-binding ELISA
[47] = target: CH505.M5D8gp120293F; assay: direct-binding ELISA
[48] = target: CH505w136.B27D8gp120 (HIV-1); assay: direct-binding ELISA

SSB, sequence (P05455 whole entry): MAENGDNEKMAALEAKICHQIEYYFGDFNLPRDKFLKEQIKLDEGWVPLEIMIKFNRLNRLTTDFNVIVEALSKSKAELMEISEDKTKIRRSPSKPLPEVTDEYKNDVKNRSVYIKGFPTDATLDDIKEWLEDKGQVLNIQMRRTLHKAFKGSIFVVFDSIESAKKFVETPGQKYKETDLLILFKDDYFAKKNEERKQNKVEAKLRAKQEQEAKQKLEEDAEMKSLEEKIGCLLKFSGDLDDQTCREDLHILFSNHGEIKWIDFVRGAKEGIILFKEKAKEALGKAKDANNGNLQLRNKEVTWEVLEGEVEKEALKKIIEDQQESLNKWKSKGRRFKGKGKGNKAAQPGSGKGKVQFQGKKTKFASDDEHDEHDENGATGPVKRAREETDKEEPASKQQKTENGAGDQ
Centromere B, sequence (P07199 whole entry): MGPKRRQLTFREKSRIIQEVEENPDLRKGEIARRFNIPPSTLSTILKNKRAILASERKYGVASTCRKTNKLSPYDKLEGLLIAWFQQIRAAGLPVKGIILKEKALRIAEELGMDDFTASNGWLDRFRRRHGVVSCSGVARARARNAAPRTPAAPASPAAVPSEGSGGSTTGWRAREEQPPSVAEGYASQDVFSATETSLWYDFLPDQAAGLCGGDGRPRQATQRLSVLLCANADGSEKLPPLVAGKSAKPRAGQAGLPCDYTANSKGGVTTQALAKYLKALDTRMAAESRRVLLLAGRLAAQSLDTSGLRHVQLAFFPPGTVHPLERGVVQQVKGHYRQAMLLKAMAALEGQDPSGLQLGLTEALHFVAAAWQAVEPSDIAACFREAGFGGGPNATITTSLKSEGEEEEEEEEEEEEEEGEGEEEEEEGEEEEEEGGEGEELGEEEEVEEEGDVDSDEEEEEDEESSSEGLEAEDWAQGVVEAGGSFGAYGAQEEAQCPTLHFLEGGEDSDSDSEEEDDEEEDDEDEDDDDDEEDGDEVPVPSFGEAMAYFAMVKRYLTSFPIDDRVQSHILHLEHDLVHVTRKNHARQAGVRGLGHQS
Jo-1, sequence (P12081 whole entry): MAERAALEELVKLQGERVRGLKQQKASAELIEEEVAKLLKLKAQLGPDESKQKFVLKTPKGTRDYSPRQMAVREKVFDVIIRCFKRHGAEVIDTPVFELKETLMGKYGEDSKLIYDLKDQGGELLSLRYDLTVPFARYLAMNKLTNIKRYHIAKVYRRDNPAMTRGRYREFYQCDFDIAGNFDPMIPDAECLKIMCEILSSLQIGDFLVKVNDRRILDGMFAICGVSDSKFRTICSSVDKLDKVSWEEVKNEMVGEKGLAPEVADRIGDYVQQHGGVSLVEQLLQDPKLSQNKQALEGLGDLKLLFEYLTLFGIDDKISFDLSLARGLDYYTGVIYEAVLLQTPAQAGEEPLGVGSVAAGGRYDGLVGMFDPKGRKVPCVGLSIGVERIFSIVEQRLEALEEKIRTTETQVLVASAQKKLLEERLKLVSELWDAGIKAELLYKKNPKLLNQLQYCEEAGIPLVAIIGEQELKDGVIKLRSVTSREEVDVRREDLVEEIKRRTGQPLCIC
Scl-70, sequence (P11387 whole entry): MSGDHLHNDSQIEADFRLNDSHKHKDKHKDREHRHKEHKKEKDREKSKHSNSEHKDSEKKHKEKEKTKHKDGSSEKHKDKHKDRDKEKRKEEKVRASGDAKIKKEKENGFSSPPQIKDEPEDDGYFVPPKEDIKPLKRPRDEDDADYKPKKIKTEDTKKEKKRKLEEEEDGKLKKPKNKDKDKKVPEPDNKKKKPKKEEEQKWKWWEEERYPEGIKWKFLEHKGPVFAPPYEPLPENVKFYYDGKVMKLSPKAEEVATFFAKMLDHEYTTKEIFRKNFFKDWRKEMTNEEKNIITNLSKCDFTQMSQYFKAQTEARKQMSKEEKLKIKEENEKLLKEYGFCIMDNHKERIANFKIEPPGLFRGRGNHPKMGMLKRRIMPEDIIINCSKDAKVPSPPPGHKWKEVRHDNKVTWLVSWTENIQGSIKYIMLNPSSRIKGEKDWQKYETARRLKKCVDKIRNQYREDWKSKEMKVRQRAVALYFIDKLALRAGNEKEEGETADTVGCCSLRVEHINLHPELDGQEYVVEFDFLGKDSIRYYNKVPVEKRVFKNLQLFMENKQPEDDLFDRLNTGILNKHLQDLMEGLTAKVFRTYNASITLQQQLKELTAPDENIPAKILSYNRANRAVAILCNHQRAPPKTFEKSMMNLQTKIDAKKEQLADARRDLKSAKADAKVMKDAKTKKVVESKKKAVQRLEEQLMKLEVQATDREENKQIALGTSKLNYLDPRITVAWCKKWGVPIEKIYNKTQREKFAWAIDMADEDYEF

Substance: CH106 (antibody)
- AtheNA signal (relative luminescence units) [1]: 8
- AtheNA signal (relative luminescence units) [2]: 3
- AtheNA signal (relative luminescence units) [3]: 1
- AtheNA signal (relative luminescence units) [4]: 2
- AtheNA signal (relative luminescence units) [5]: 3
- AtheNA signal (relative luminescence units) [6]: 3
- AtheNA signal (relative luminescence units) [7]: 2
- AtheNA signal (relative luminescence units) [8]: 2
- IC50 [9]: 6.8 µg/mL
- AtheNA signal (relative luminescence units) [10]: 11
- AtheNA signal (relative luminescence units) [11]: 2
- AtheNA signal (relative luminescence units) [12]: 4
- AtheNA signal (relative luminescence units) [13]: 3
- AtheNA signal (relative luminescence units) [14]: 2
- AtheNA signal (relative luminescence units) [15]: 5
- AtheNA signal (relative luminescence units) [16]: 3
- AtheNA signal (relative luminescence units) [17]: 2
- IC50 [18]: 4.3 µg/mL
- IC50 [19]: 14.3 µg/mL
- IC50 [20]: 4.6 µg/mL
- LogAUC [21]: 6.94
- LogAUC [22]: 11.7
- LogAUC [23]: 12.7
- LogAUC [24]: 6.16
- LogAUC [25]: 12.2
- LogAUC [26]: 9.29
- LogAUC [27]: 7.6
- LogAUC [28]: 7.06
- LogAUC [29]: 12.2
- LogAUC [30]: 10.7
- LogAUC [31]: 10.9
- LogAUC [32]: 8.15
- LogAUC [33]: 13.3
- LogAUC [34]: 12.8
- LogAUC [35]: 11.9
- LogAUC [36]: 12.3
- LogAUC [37]: 11
- LogAUC [38]: 12.2
- LogAUC [39]: 5.64
- LogAUC [40]: 13.1
- LogAUC [41]: 12.1
- LogAUC [42]: 8.97
- LogAUC [43]: 12.6
- LogAUC [44]: 12.6
- LogAUC [45]: 6.8
- LogAUC [46]: 12
- LogAUC [47]: 8.37
- LogAUC [48]: 11.2
